From US20240400614A1, “CLEAVABLE PEPTIDES AND METHODS OF USE THEREOF” (Bright Peak Therapeutics AG, priority 2023, published 2024)
Square brackets hold non-standard residues; d marks the D form. Ends that are not written are not given here. Tyr(3-NO2) = N[C@@H](Cc1ccc(O)c([N+](=O)[O-])c1)C(=O)O; 2Abz = Nc1ccccc1C(=O)O

How the values were obtained:
Format in all cases: biochemical
uPA = uPA (Homo sapiens, UniProt P00749); assay: FRET peptide cleavage efficiency with uPA
matriptase = biological target: T1, matriptase (Homo sapiens, UniProt Q9Y5Y6); assay: FRET peptide cleavage efficiency with matriptase
T1 construct: purchased R&D Systems 3946-SEB
T1 sequence (Q9Y5Y6 615-855 limits assumed): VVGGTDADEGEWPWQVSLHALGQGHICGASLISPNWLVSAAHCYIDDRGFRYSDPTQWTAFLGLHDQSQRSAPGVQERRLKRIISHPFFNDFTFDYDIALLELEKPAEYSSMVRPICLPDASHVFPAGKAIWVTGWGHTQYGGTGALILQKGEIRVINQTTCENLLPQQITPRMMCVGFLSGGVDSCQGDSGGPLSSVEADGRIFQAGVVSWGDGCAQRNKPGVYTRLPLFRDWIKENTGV

MMP-2 = biological target: T2, MMP-2 (Homo sapiens, UniProt P08253); assay: FRET peptide cleavage efficiency with MMP-2
T2 construct: purchased SIGMA PF023
T2 sequence (P08253 110-660): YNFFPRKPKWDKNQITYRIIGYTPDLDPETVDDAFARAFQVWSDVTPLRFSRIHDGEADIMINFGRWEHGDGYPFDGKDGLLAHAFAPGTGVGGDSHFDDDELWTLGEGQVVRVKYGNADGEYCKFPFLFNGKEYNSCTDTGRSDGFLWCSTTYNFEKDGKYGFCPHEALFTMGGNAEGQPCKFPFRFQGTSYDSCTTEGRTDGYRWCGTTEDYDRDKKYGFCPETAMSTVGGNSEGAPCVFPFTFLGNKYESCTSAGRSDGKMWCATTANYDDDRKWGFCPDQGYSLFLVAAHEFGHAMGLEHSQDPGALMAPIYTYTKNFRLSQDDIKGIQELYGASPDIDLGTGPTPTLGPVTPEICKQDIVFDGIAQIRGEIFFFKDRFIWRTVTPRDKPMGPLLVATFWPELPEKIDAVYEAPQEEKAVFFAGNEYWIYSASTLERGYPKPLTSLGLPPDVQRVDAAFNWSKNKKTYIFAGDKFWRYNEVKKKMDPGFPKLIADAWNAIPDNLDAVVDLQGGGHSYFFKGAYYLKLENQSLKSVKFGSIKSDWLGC

MMP-7 = biological target: T3, MMP-7 (Homo sapiens, UniProt P09237); assay: FRET peptide cleavage efficiency with MMP-7 (standard pH 7.5; also pH 6.5)
T3 construct: purchased SIGMA CC1059
T3 sequence (P09237 95-267): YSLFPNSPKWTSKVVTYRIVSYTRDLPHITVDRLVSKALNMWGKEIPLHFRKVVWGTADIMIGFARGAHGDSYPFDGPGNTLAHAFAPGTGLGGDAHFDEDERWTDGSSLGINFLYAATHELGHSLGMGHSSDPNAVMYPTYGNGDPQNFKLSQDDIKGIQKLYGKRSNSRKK

MMP-9 = biological target: T4, MMP-9 (Homo sapiens, UniProt P14780); assay: FRET peptide cleavage efficiency with MMP-9 (standard pH 7.5; also pH 6.5)
T4 construct: purchased SIGMA PF024
T4 sequence (P14780 94-707): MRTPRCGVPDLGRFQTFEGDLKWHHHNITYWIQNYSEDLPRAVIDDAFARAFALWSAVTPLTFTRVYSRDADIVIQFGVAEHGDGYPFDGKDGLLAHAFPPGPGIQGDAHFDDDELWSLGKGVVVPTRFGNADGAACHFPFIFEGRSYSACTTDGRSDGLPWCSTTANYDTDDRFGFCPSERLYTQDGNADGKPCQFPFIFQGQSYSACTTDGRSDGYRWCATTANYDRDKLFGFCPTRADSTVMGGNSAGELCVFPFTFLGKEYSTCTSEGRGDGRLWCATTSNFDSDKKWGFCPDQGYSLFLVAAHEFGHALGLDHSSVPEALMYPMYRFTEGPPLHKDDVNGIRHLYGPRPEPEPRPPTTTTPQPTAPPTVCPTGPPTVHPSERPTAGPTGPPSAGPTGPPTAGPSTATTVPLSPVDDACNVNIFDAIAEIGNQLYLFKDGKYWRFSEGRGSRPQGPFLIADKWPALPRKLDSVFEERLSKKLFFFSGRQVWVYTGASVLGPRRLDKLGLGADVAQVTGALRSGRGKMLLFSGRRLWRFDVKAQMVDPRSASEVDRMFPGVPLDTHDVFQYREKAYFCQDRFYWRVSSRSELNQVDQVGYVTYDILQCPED

[1] = t = 15 min, 200 uM linker, 1 ug/ml protease, 37° C., buffer A pH 8.5
[2] = 200 uM linker, 1 ug/ml protease, 37° C., buffer A pH 8.5
[3] = 200 uM linker, 1 ug/ml protease, 37° C., buffer B pH 9.0
[4] = t = 15 min, 200 uM linker, 1 ug/ml protease, 37° C., buffer C pH 7.5
[5] = t = 60 min, 200 uM linker, 1 ug/ml protease, 37° C., buffer C pH 7.5
[6] = t = 120 min, 200 uM linker, 1 ug/ml protease, 37° C., buffer C pH 7.5
[7] = t = 15 min, standard conditions (Table 8)
[8] = t = 60 min, standard conditions (Table 8)
[9] = t = 120 min, standard conditions (Table 8)

Row | Sequence | % cleavage uPA t = 15 min (uPA; [1]) | % cleavage uPA t = 60 min (uPA; [2]) | % cleavage uPA t = 120 min (uPA; [2]) | % cleavage Matriptase t = 15 min (matriptase; [3]) | % cleavage Matriptase t = 60 min (matriptase; [3]) | % cleavage Matriptase t = 120 min (matriptase; [3]) | % cleavage MMP-2 t = 15 min (MMP-2; t = 15 min (Table 9)) | % cleavage MMP-2 t = 15 min (MMP-2; [4]) | % cleavage MMP-2 t = 60 min (MMP-2; t = 60 min (Table 9)) | % cleavage MMP-2 t = 60 min (MMP-2; [5]) | % cleavage MMP-2 t = 120 min (MMP-2; t = 120 min (Table 9)) | % cleavage MMP-2 t = 120 min (MMP-2; [6]) | % cleavage MMP-7 t = 15 min (MMP-7; t = 15 min (Table 9)) | % cleavage MMP-7 t = 60 min (MMP-7; t = 60 min (Table 9)) | % cleavage MMP-7 t = 120 min (MMP-7; t = 120 min (Table 9)) | % cleavage MMP-9 t = 15 min (MMP-9; t = 15 min (Table 9)) | % cleavage MMP-9 t = 60 min (MMP-9; t = 60 min (Table 9)) | % cleavage MMP-9 t = 120 min (MMP-9; t = 120 min (Table 9)) | other results
1 | RGRRSGRAANLVRPLGYFGKL ([2Abz]RGRRSGRAANLVRPLGYFGKL[Tyr(3-NO2)]-NH2) [LNK059] | 67% | 100% | 100% | 76% | 100% | 100% | 77% | 77% | 100% | 100% | 100% | 100% | 0% | 0% | 0% | 39% | 100% | 100% | 
2 | RGRRVANLVG ([2Abz]RGRRVANLVG[Tyr(3-NO2)]-NH2) [LNK033] |  |  |  |  |  |  | 87% |  | 100% |  | 100% |  | 30% | 86% | 98% | 81% | 100% | 100% | % vcleavage uPA t = 15 min (uPA; [7]): 1%; % cleavage uPA t = 60 min (uPA; standard conditions (Table 8)): 2%; % cleavage uPA t = 120 min (uPA; standard conditions (Table 8)): 3%; % cleavage Matriptase t = 15 min (matriptase; standard conditions (Table 8)): 100%; % cleavage Matriptase t = 60 min (matriptase; standard conditions (Table 8)): 100%; % cleavage Matriptase t = 120 min (matriptase; standard conditions (Table 8)): 100%; % cleavage MMP-2 t = 60 min (MMP-2; [8]): 100%; % cleavage MMP-2 t = 120 min (MMP-2; [9]): 100%; % cleavage MMP-7 t = 15 min (MMP-7; [7]): 30%; % cleavage MMP-7 t = 60 min (MMP-7; [8]): 86%; % cleavage MMP-7 t = 120 min (MMP-7; [9]): 98%; % cleavage MMP-9 t = 15 min (MMP-9; [7]): 81%; % cleavage MMP-9 t = 60 min (MMP-9; [8]): 100%; % cleavage MMP-9 t = 120 min (MMP-9; [9]): 100%
3 | RGRRVANPLGLAGSG ([2Abz]RGRRVANPLGLAGSG[Tyr(3-NO2)]-NH2) [LNK050] | 1% | 3% | 6% | 78% | 100% | 100% | 54% | 54% | 100% | 100% | 100% | 100% | 1% | 3% | 6% | 52% | 100% | 100% | 
4 | RGRRVANPLGYFGKL ([2Abz]RGRRVANPLGYFGKL[Tyr(3-NO2)]-NH2) [LNK058] | 1% | 5% | 10% | 88% | 100% | 100% | 68% | 68% | 100% | 100% | 100% | 100% | 0% | 0% | 0% | 31% | 97% | 100% | 
